Test results as given in patent US12673985B2, “Method for the treatment or prophylaxis of cancer by targeting the extracellular portion of keratin 14 (KRT14) residing on cancer cells” (Hudson Institute of Medical Research, priority 2019, dated 2026).
Entries after “also recorded” stand apart in the source; their conditions may differ.

What was measured:
[1] = molecular target: T1, full-length recombinant KRT14 protein (Homo sapiens, UniProt P02533); test: Western blotting for KRT14 detection; type: binding; settings: dilutions 1:1000 to 1:10,000; 1 μg protein
T1 construct: A 1 μg aliquot of full-length recombinant KRT14 protein (Abcam #ab73637) was separated by SDS PAGE; purchased Abcam ab73637
T1 sequence (P02533 1-472): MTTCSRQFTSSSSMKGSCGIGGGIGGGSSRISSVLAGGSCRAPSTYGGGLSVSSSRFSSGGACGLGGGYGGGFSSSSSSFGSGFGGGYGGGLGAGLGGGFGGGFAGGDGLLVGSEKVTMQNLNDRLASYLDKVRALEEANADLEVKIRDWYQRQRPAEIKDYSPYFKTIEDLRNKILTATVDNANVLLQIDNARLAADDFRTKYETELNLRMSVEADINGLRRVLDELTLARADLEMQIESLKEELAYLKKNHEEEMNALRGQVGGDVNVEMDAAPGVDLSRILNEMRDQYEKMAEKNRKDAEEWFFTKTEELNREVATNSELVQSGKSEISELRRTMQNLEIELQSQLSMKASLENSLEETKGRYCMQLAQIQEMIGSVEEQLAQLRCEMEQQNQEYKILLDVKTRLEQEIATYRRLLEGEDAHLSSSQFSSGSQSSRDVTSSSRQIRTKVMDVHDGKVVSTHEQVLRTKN
Protocol: Western Blot analyses. SDS-PAGE and western blotting were performed as previously described in Bilandzic et al. (2013) Mol Endocrinol, 2013. 27(3):466-79). Blots were probed using antibodies against KRT14 (1:1000, SAB4501657), mAb AN-17 and β-actin (1:20,000; Sigma-Aldrich, Castle Hill, Australia). Secondary antibodies HRP-conjugated goat anti-mouse, anti-rabbit and donkey anti-goat (1:50,000; Merck Millipore, Kilsyth, Australia) were used Bilandzic et al. (2013) Mol Endocrinol, 2013. 27(3):466-79). Protein bands were detected using Clarity Western ECL blotting substrate (Biorad #1705061) and visualized using a ChemiDoc (Trade Mark) MP System (Bio-Rad, #1708280).
A 1 μg aliquot of full-length recombinant KRT14 protein (Abcam #ab73637) was separated by SDS PAGE and transferred to PVDF membrane using standard procedures (PMID: 23952987). The membrane was probed with mAb AN-17 at dilutions of 1:1000, 1:5000 and 1:10,000. Secondary antibody was goat anti-mouse HRP conjugate (1:50,000 dilution), with detection of KRT14 using chemiluminescence according to standard protocols (PMID: 23952987; Rainczuk et al., J Proteome Res. 2013; 12(9):4074-88).

[2] = test system: Murine ID8 ovarian tumour; test: Treatment of established primary ID8 ovarian tumours in syngeneic mouse model; type: in vivo, C57BL/6 mice; settings: 5 mg/kg i.p. bi-weekly for 3 weeks
Protocol: Mice with primary tumours (n=10/group) received mAb AN-17 at 5 mg/kg by intraperitoneal injection bi-weekly, for a period of 3 weeks. Control animals received an equivalent dose of isotype-matched control IgG kappa antibody (Control Group 1); or and equivalent volume of vehicle (PBS) alone (Control Group 2). Following 3 weeks of bi-weekly treatment (Mondays and Thursdays), all mice were culled and assessed for tumour size and weight. Two additional, non-tumour bearing animals were used as non-surgical controls.

KRT14+ cells = test: Flow cytometry for KRT14+ cell populations in ovarian cancer cells; type: cell-based, human and murine; settings: mAb AN-17 1:200
Protocol: (§1) Flow cytometry was carried out according to standard protocols (PMID: 30602661), with data acquired using a BD LSRFortessa X-20 (BD Biosciences) and analysed using FlowJo software v10.5.0 (BD Biosciences). Samples assessed for KRT14+ cell populations included OVCAR3, CAOV4, ID8 mouse ovarian cancer cells, ascites-derived ovarian cancer cells derived from a clinical specimen (designated #3.1937-07) and cardiac blood from a mice bearing 12-week old epithelial ovarian tumours. For cell lines, 1×10^6 cells per cell line were incubated with either mAb AN-17 (1:200 dilution) or a commercially available anti-KRT14 polyclonal antibody (Sigma SAB4501657; 1:50 dilution) as a positive control for 45 mins in non-immune serum at room temperature. The secondary antibodies, goat anti-mouse Alexa647 (mAb AN-17) or goat anti-rabbit IgG Alexa 488 (commercial Ab), were diluted 1:500 and incubated for 30 minutes. For blood samples, 2×10^6 cells were incubated with an Alexa Fluor®488-conjugated mAb AN-17 antibody for 45 minutes. Following PBS washes, cells were resuspended in PBS/2% FBS data was acquired using a BD LSRFortessa X-20 (BD Biosciences) flow cytometer.

[3] = test system: 9,184 individual recombinant human proteins; test: ProtoArray Human Protein Microarrays v5.0 cross-reactivity profiling; type: binding; settings: mAb diluted 1:500
Protocol: Proteomic profiling of mAb AN-17 antibody reactivity was performed using Invitrogen™ ProtoArray™ Human Protein Microarrays v5.0 (ThermoFisher Scientific, Waltham MA), comprising 9,184 individual recombinant human proteins spotted in duplicate. All procedures were carried out as previously described (PMID: 29141850; Wilson et al. Cancer Epidemiol Biomarkers Prev. 2018; 27(2):183-192). Arrays were probed using mAb AN-17 diluted 1:500 in wash buffer. Fluorescent detection antibody against IgG heavy and light chains was from Abcam (#ab150119 Goat Anti-Mouse IgG H&L Alexa Fluor® 647, preadsorbed) diluted to […] in wash buffer prior to use. A single array incubated with detection antibody alone was used as a control for non-specific antibody binding.
Array imaging was performed using a Fuji FLA5100 multi wavelength scanner as described (PMID: 29141850; Wilson et al. Cancer Epidemiol Biomarkers Prev. 2018; 27(2):183-192), using a 635 nm excitation laser and dual band pass Cy3/Cy5 filter. Images were acquired at […], with PMT set at 1000V. Array alignment, feature extraction and data normalization were performed as previously described (PMID: 29141850; Wilson et al. Cancer Epidemiol Biomarkers Prev. 2018; 27(2):183-192). Array co-ordinates were obtained from the manufacturer-provided downloadable .GAL files (ThermoFisher Scientific).

[4] = Tissue distribution and clearance by fluorescence in mice without tumours; type: in vivo
From the text: Control mice received vehicle (PBS) alone.

ID8 ovarian tumour = settings: mouse, in vivo
Protocol: Control mice received vehicle (PBS) alone. At time points from 4 hr to 7 days post-injection, mice were culled and selected tissues (liver, kidney, spleen, intestine, ovary+fallopian tube/ovarian tumour (as relevant), brain, heart, lung) were harvested. Tissue distribution and clearance were assessed by ALEXA647 or ALEXA750 fluorescence using an IVIS Lumina III Imaging System (Perkin Elmer). Bright-field (auto-exposure) and fluorescence imaging (ALEXA647 ex640, em670; or ALEXA750 ex740, em790 nm). Spectral unmixing and image analysis were performed as previously described (PMID: 30602661; Wilson et al., Cancers (Basel). 2018 Dec. 31; 11(1), E32). Background average radiant efficiency from vehicle-treated animals were subtracted from fluorescence measurements in each case, and the resulting data plotted for comparison.

KRT14+ CTCs = test: Flow cytometry detection of circulating tumour cells in blood of mice bearing ID8 iRFP720+ epithelial ovarian tumours; type: cell-based; settings: confirmed by iRFP720+ status
Protocol: as §1
Expression of extracellular KRT14 also marks the circulating tumour cell (CTC) population.

B1: mAb AN-17: monoclonal anti-KRT14 antibody; heavy chain variable region SEQ ID NO:3, light chain variable region SEQ ID NO:5 (clone AN-17A RG4.E5b.A7.B4) (antibody, listed as Mus musculus, V domains shown)
VH: QVQLKESGPGLVAPSQSLSITCTVSGFSLSRYSVHWVRQPPGKGLEWLGMIWGGGSTDYNSALKSRLSISKDNSKSQVFLKMNSLQTDDTAMYYCARKDYGYSYFDYWGQGTTLTVSS
VL: DVLMTQTPLSLPVSLGDQASISCRSSQSIVHSNGNTYLEWYLQKPGQSPKLLIYKVSNRFSGVPDRFSGSGSGTDFTLKISRVEAEDLGVYYCFQGSHVPFTFGSGTKLEIKRADAAPTVS
For B1, the “detection of KRT14 protein by western blotting” value [1] was “successfully detected KRT14 protein”, the “adverse effects during treatment” value [2] was “had no observable adverse effects on animals; also recorded: no adverse effects noted during the treatment period” and the “primary ovarian tumours at cull / tumour progression” value ([2]; n=10/group) was “no tumours could be identified; also recorded: complete regression”. For the same molecule, the “detection of KRT14+ cells by flow cytometry compared to Sigma SAB4501657” value (KRT14+ cells) was “comparable sensitivity”, the “cross-reactivity with protein antigens on arrays” value [3] was “did not react with any of the proteins present on the arrays tested; also recorded: No cross-reactivity was evident” and the “cross-reactivity with protein antigens on arrays” value ([3]; listed as mAB AN-17) was “did not react with any of the antigens present on the array, including several related keratin proteins”. For the same molecule, the “non-selective accumulation or retention in healthy tissues” value ([4]; doses from 0.5 mg/kg to 10 mg/kg i.p.) was “does not exhibit non-selective accumulation or retention in healthy tissues; also recorded: No non-specific retention”, the “detectability in organs after 7 days” value ([4]; doses from 0.5 mg/kg to 10 mg/kg i.p., even at the highest dose) was “virtually undetectable in all organs after 7 days; also recorded: largely undetectable after 7 days” and the “antibody-associated fluorescence in brain” value ([4]; single dose 0.5 mg/kg i.p.) was “no fluorescence was detected in brain”. The “tissues with antibody-associated fluorescence” value ([4]; single dose 0.5 mg/kg i.p.) was “observed in intestine, reproductive organs, liver, kidney, spleen, lung and heart”, the “specific accumulation / non-specific retention in healthy tissues vs isotype control” value ([4]; single dose 0.5 mg/kg i.p., 7 day period, 0.5 mg/kg) was “no specific accumulation; also recorded: no non-specific retention” and the “clearance from organs by day 7” value ([4]; single dose 0.5 mg/kg i.p., 0.5 mg/kg) was “largely cleared from all organs; also recorded: almost undetectable after 7 days”. The “initial levels in tumour tissue vs reproductive tract of mice without tumours” value (ID8 ovarian tumour) was 2 orders of magnitude, the “identification of circulating tumour cells from whole blood” value (KRT14+ CTCs) was “able to detect and isolate KRT14+ CTCs” and the “identification of circulating tumour cells from whole blood” value (KRT14+ CTCs; listed as mAB AN-17) was “able to correctly identify iRFP+ cells from whole blood”.
